Reference: IntAct's records for PubMed 16286470

B1: Dual specificity protein phosphatase 1 (Homo sapiens), P28562 (parent)
chain: MVMEVGTLDAGGLRALLGERAAQCLLLDCRSFFAFNAGHIAGSVNVRFSTIVRRRAKGAMGLEHIVPNAELRGRLLAGAYHAVVLLDERSAALDGAKRDGTLALAAGALCREARAAQVFFLKGGYEAFSASCPELCSKQSTPMGLSLPLSTSVPDSAESGCSSCSTPLYDQGGPVEILPFLYLGSAYHASRKDMLDALGITALINVSANCPNHFEGHYQYKSIPVEDNHKADISSWFNEAIDFIDSIKNAGGRVFVHCQAGISRSATICLAYLMRTNRVKLDEAFEFVKQRRSIISPNFSFMGQLLQFESQVLAPHCSAEAGSPAMAVLDRGTSTTTVFNFPVSIPVHSTNSALSYLQSPITTSPSC

Variants of: B1
Settings: with ubb_human UBB

| effect of a mutation on the interaction | Variant |
| --- | --- |
| decreasing interaction | MVMEVGTLDAGGLRALLGERAAQCLLLDCRSFFAFNAGHIAGSVNVRFSTIVRRRAKGAMGLEHIVPNAELRGRLLAGAYHAVVLLDERSAALDGAKRDGTLALAAGALCREARAAQVFFLKGGYEAFSASCPELCSKQSTPMGLSLPLSTSVPDSAESGCSSCSTPLYDQGGPVEILPFLYLGSAYHASRKDMLDALGITALINVSANCPNHFEGHYQYKSIPVEDNHKADISSWFNEAIDFIDSIKNAGGRVFVHCQAGISRSATICLAYLMRTNRVKLDEAFEFVKQRRSIISPNFSFMGQLLQFESQVLAPHCSAEAGAPAMAVLDRGTSTTTVFNFPVSIPVHSTNSALSYLQSPITTSPSC [S323A] |
| decreasing interaction | MVMEVGTLDAGGLRALLGERAAQCLLLDCRSFFAFNAGHIAGSVNVRFSTIVRRRAKGAMGLEHIVPNAELRGRLLAGAYHAVVLLDERSAALDGAKRDGTLALAAGALCREARAAQVFFLKGGYEAFSASCPELCSKQSTPMGLSLPLSTSVPDSAESGCSSCSTPLYDQGGPVEILPFLYLGSAYHASRKDMLDALGITALINVSANCPNHFEGHYQYKSIPVEDNHKADISSWFNEAIDFIDSIKNAGGRVFVHCQAGISRSATICLAYLMRTNRVKLDEAFEFVKQRRSIISPNFSFMGQLLQFESQVLAPHCSAEAGSPAMAVLDRGTSTTTVANAPVSIPVHSTNSALSYLQSPITTSPSC [F339A;F341A] |
| decreasing interaction | MVMEVGTLDAGGLRALLGERAAQCLLLDCRSFFAFNAGHIAGSVNVRFSTIVRRRAKGAMGLEHIVPNAELRGRLLAGAYHAVVLLDERSAALDGAKRDGTLALAAGALCREARAAQVFFLKGGYEAFSASCPELCSKQSTPMGLSLPLSTSVPDSAESGCSSCSTPLYDQGGPVEILPFLYLGSAYHASRKDMLDALGITALINVSANCPNHFEGHYQYKSIPVEDNHKADISSWFNEAIDFIDSIKNAGGRVFVHCQAGISRSATICLAYLMRTNRVKLDEAFEFVKQRRSIIAPNFSFMGQLLQFESQVLAPHCSAEAGSPAMAVLDRGTSTTTVFNFPVSIPVHSTNSALSYLQSPITTSPSC [S296A] |

Variants of: B1
Settings: with skp2_human SKP2, Q13309
Chain of skp2_human SKP2, Q13309 (Q13309 whole entry): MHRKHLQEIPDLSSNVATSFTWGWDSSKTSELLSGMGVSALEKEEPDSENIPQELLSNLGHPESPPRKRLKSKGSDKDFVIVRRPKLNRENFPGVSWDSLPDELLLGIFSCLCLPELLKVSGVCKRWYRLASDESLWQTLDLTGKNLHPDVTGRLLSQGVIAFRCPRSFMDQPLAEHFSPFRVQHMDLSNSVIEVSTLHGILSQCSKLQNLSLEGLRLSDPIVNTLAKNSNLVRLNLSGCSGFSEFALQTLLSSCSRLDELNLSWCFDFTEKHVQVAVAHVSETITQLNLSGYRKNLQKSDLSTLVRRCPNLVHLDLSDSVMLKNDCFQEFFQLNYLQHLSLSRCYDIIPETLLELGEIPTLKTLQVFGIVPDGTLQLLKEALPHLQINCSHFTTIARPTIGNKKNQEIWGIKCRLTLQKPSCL

| effect of a mutation on the interaction | Variant |
| --- | --- |
| decreasing interaction | MVMEVGTLDAGGLRALLGERAAQCLLLDCRSFFAFNAGHIAGSVNVRFSTIVRRRAKGAMGLEHIVPNAELRGRLLAGAYHAVVLLDERSAALDGAKRDGTLALAAGALCREARAAQVFFLKGGYEAFSASCPELCSKQSTPMGLSLPLSTSVPDSAESGCSSCSTPLYDQGGPVEILPFLYLGSAYHASRKDMLDALGITALINVSANCPNHFEGHYQYKSIPVEDNHKADISSWFNEAIDFIDSIKNAGGRVFVHCQAGISRSATICLAYLMRTNRVKLDEAFEFVKQRRSIIAPNFSFMGQLLQFESQVLAPHCSAEAGSPAMAVLDRGTSTTTVFNFPVSIPVHSTNSALSYLQSPITTSPSC [S296A] |
